# Test results: publication PMC8790125, “Molecular Mechanism of SARS-CoVs Orf6 Targeting the Rae1–Nup98 Complex to Compete With mRNA Nuclear Export”
# Target: Rae1;Nup98 GLEBS (human;human, UniProt P78406;P52948-3 1-368;157-213, |)
# Assay: ITC
# Details: protein: recombinant;recombinant; tags: His tag on the complex (HisTrap); copies: 1;1
# Sequence of Rae1;Nup98 GLEBS (P78406 whole entry, chain 1 of 2): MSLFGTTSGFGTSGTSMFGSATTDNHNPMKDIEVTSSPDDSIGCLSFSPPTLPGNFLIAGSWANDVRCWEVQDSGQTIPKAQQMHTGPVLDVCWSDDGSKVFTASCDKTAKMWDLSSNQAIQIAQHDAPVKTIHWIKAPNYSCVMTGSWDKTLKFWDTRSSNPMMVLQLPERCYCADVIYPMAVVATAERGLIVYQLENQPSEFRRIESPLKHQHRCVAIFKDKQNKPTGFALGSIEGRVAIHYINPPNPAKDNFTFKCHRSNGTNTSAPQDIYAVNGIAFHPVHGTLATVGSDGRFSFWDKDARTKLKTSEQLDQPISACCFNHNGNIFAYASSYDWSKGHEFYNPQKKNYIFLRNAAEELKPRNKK
# Sequence of Rae1;Nup98 GLEBS (P52948 157-213, chain 2 of 2): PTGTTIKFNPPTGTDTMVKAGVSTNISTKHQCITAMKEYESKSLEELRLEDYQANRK
binder,measurement,value
UUUUUUUUUUUUUU (ssRNA) [14-mer poly(U) ssRNA],binding result,binds
